# Reference: the supplement of paper PMC7125110
# ± gives the standard error. For some of these results: Variants at the floor of the assay were thinned out.
# B1: glmS ribozyme (parent)
# chain: AUAAAAGCGCCAGAACUACAGAAAUGUAGUUGACGAGGAGGAGGUUUAUCGAAUUUUCGGCGGAUGCCUCCAAA
# Tests used:
# Settings in all cases: with glucosamine-6-phosphate
# glucosamine-6-phosphate [1] = variants of: B1; test: kcat; higher = faster cleavage; RNA array
# Summary of the method: (§1)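 Weighted Michaelis–Menten fits across concentrations supplied kcat and KM, based on kobs from one- or two-exponential decay fits to normalised per-tile medians. The data came from barcoded ribozyme variants transcribed in situ by E. coli RNA polymerase on sequenced MiSeq chips and tracked at 37 °C by a hybridised Cy3 probe. Glucosamine-6-phosphate (40 μM to 10 mM) in HEPES/KCl/Mg(OAc)2 buffer was flowed in.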
# glucosamine-6-phosphate [2] = variants of: B1; test: self-cleavage kobs at 640 uM GlcN6P; higher = faster cleavage; RNA array
# Summary of the method: as §1
# glucosamine-6-phosphate [3] = variants of: B1; test: self-cleavage kobs at 10000 uM GlcN6P; higher = faster cleavage; RNA array
# Summary of the method: as §1
# glucosamine-6-phosphate [4] = variants of: B1; test: self-cleavage kobs at 2500 uM GlcN6P; higher = faster cleavage; RNA array
# Summary of the method: as §1
# glucosamine-6-phosphate [5] = variants of: B1; test: KM; higher = weaker cofactor use; RNA array
# Summary of the method: as §1
# glucosamine-6-phosphate [6] = variants of: B1; test: self-cleavage kobs at 40 uM GlcN6P; higher = faster cleavage; RNA array
# Summary of the method: as §1
# glucosamine-6-phosphate [7] = variants of: B1; test: self-cleavage kobs at 160 uM GlcN6P; higher = faster cleavage; RNA array
# Summary of the method: as §1
Variant,kcat (glucosamine-6-phosphate [1]) [s⁻¹],self-cleavage kobs at 640 uM GlcN6P (glucosamine-6-phosphate [2]) [s⁻¹],self-cleavage kobs at 10000 uM GlcN6P (glucosamine-6-phosphate [3]) [s⁻¹],self-cleavage kobs at 2500 uM GlcN6P (glucosamine-6-phosphate [4]) [s⁻¹],KM (glucosamine-6-phosphate [5]) [µM],self-cleavage kobs at 40 uM GlcN6P (glucosamine-6-phosphate [6]) [s⁻¹],self-cleavage kobs at 160 uM GlcN6P (glucosamine-6-phosphate [7]) [s⁻¹]
C34U G60A,< 1e-05,< 1e-05,< 1e-05,,,,
G37C C67U,2.86e-05 ± 3.3e-06,,,2.85e-05 ± 1e-05,,,
A39U C70A,0.000394 ± 9.4e-05,0.000187 ± 2.3e-05,0.000382 ± 5.4e-05,0.000403 ± 6.9e-05,558 ± 250,5.15e-05 ± 9.3e-06,7.96e-05 ± 1.2e-05
A39U C70G,0.000797 ± 0.00021,0.000201 ± 3.6e-05,0.000713 ± 0.0001,0.000522 ± 8.8e-05,1500 ± 720,4.48e-05 ± 9.1e-06,6.66e-05 ± 2e-05
G38U U57A,1.47e-05 ± 4.2e-06,< 1e-05,,,,,
G35U U55C,< 1e-05,,< 1e-05,< 1e-05,,< 1e-05,< 1e-05
G37C U69G,2.05e-05 ± 4e-06,,,,,,
A36U C61A,< 1e-05,,< 1e-05,,,< 1e-05,
G40A A64C,6.62e-05 ± 1.1e-05,,5.19e-05 ± 1.5e-05,,,,
G35A C50G U69A,0.000277 ± 5.3e-05,0.000501 ± 0.00021,0.000278 ± 5.3e-05,0.000206 ± 7.8e-05,,0.000149 ± 3.4e-05,0.000465 ± 0.00015
C34G C68U,1.7e-05 ± 5.3e-06,,,,,,
C34G C67G,4.36e-05 ± 2.1e-05,,,4.65e-05 ± 1.9e-05,,,
A36U C68G,0.000198 ± 5.7e-05,0.000275 ± 3.5e-05,0.000121 ± 3.4e-05,,,7.38e-05 ± 1.2e-05,
A39G A53G C67G,0.00302 ± 0.001,0.00135 ± 0.00029,0.00257 ± 0.00072,0.00536 ± 0.0012,,0.000234 ± 7.2e-05,0.000647 ± 0.00024
A36U G66A,< 1e-05,,,,,,< 1e-05
G37A G41U,0.000119 ± 2.1e-05,4.8e-05 ± 1.3e-05,0.0001 ± 1.2e-05,0.000126 ± 1.7e-05,,,
A39G U46C,0.00815 ± 0.0014,0.00369 ± 0.00073,0.00601 ± 0.0018,0.0069 ± 0.0015,946 ± 240,0.000292 ± 6.4e-05,0.00135 ± 0.00039
G38U G63A,< 1e-05,,,,,< 1e-05,< 1e-05
